Results from publication PMC7553777, “Structural basis for the reaction cycle of DASS dicarboxylate transporters” (eLife, 2020).
Where two headings read alike, the source gives them in different places.

Key:
[1] = molecular target: LaINDY, succinate/dicarboxylate transporter from Lactobacillus acidophilus (Lactobacillus acidophilus); assay: cryo-EM structure
[2] = molecular target: LaINDY, succinate/dicarboxylate transporter from Lactobacillus acidophilus (Lactobacillus acidophilus); assay: crystal structure
[3] = molecular target: LaINDY, succinate/dicarboxylate transporter from Lactobacillus acidophilus (Lactobacillus acidophilus); assay: SEC-MALS; Shodex KW803 column, buffer with 0.05% DDM, three angle static light scattering, refractive index and UV detectors; detergent-purified LaINDY
LaINDY [4] = molecular target: T1, LaINDY (Lactobacillus acidophilus, UniProt Q5FKK5); assay: thermostability, SEC peak height after […] h at […] °C; assay type: binding
T1 construct: gene LBA0912
T1 sequence (Q5FKK5 1-488 limits assumed): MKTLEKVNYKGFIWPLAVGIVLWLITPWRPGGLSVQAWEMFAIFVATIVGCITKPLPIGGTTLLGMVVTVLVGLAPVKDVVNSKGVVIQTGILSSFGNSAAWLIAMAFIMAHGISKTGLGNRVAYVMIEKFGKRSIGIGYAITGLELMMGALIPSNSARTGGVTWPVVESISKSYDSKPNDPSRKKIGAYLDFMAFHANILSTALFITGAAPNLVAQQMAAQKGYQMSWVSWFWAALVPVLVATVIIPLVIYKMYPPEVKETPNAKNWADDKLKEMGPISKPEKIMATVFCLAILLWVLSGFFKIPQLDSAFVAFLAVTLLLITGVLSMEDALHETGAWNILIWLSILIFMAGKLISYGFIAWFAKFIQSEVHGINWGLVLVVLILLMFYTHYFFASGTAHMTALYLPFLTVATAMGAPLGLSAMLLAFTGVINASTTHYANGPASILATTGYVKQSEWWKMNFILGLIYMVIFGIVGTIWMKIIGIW

LaINDY [5] = molecular target: T1, LaINDY; assay: whole-cell radiolabelled uptake and exchange in E. coli BL21(DE3); assay type: cell-based; conditions: 1 μM 3H-succinate, labelled compound, pH 7.5, 30 °C, 10 mM NaCl

**Q.** For “LaINDY, succinate/dicarboxylate transporter from Lactobacillus acidophilus (natural protein)”, which stoichiometry N [1] is on record?
**A.** 2

**Q.** What about the stoichiometry N [2] of the same compound?
**A.** 2

**Q.** And the stoichiometry N [3]?
**A.** 2

**Q.** `O=C(O)CCC(=O)C(=O)O` [αKG] was tested. Which “thermostability, SEC peak height after 2 h at 42 °C” value (LaINDY [4]; pH 8.0, 150 mM NaCl, 0.15% DM, 100 mM compound as printed) did it give?
**A.** Following identification of malate and αKG as stabilizers

**Q.** How did the “whole-cell radiolabelled uptake and exchange in E. coli BL21(DE3)” value (LaINDY [5]) turn out when `O=C(O)CCC(=O)O` [succinate] was run?
**A.** E. coli transformed with LaINDY accumulated radioactive succinate from an external solution

**Q.** How did the “thermostability, SEC peak height after 2 h at 42 °C” value (LaINDY [4]) turn out when `O=C(O)CC(O)C(=O)O` (racemic) [malate] was run?
**A.** Following identification of malate and αKG as stabilizers
